In publication PMC4666417, “Specific Interaction between eEF1A and HIV RT Is Critical for HIV-1 Reverse Transcription and a Potential Anti-HIV Target” (PLoS Pathogens, 2015):

Experiments:
[1] = molecular target: T1, HIV-1 RT p66, 6xHis-tagged, purified (gift) (HIV-1, UniProt P04585 588-1147); experiment: BLI; biotinylated eEF1 subunit (eEF1A1, eEF1B, eEF1D or eEF1G) immobilised on streptavidin biosensor; RT subunits, RT heterodimer, Gag or RTp66 mutants as analytes at 90, 30 and 10 nM (mutants at 90 nM); kinetic buffer 1 mM phosphate, 15 mM NaCl, 0.002% Tween-20, 0.1 mg/ml gelatine, 1000 rpm, OctetRed; settings: both partners purified
T1 construct: source: E. coli, purified; gift

[2] = molecular target: HIV-1 Gag, 6xHis-tagged, purified (HIV-1); experiment: as above; settings: both partners purified

B1: eEF1A1 (eukaryotic elongation factor 1 subunit A1), MYC/DDK-tagged (natural protein, human, UniProt P68104 1-462, looked up)
chain: MGKEKTHINIVVIGHVDSGKSTTTGHLIYKCGGIDKRTIEKFEKEAAEMGKGSFKYAWVLDKLKAERERGITIDISLWKFETSKYYVTIIDAPGHRDFIKNMITGTSQADCAVLIVAAGVGEFEAGISKNGQTREHALLAYTLGVKQLIVGVNKMDSTEPPYSQKRYEEIVKEVSTYIKKIGYNPDTVAFVPISGWNGDNMLEPSANMPWFKGWKVTRKDGNASGTTLLEALDCILPPTRPTDKPLRLPLQDVYKIGGIGTVPVGRVETGVLKPGMVVTFAPVNVTTEVKSVEMHHEALSEALPGDNVGFNVKNVSVKDVRRGNVAGDSKNDPPMEAAGFTAQVIILNHPGQISAGYAPVLDCHTAHIACKFAELKEKIDRRSGKKLEDGPKFLKSGDAAIVDMVPGKPMCVESFSDYPPLGRFAVRDMRQTVAVGVIKAVDKKAAGAGKVTKSAQKAQKAK
modifications: biotinylated with EZ-Link Sulfo-NHS-Biotin where immobilised on the biosensor
notes: human eEF1A1, full-length; Used as analyte (a1, a2, a5) and, biotinylated, as immobilised ligand (a3); also called MYC/DDK-eEF1A1; purified eEF1A; source: HEK293 cells, bought: OriGene; not shown: MYC, C-terminal, kept; DDK, C-terminal, kept
- Kd [1]: 3.19 ± 1.08 nM
- koff [1]: 0.000222 s⁻¹
- kon [1]: 69500 M⁻¹ s⁻¹
- Kd [2]: 21.5 ± 11.1 nM
- koff [2]: 0.00188 s⁻¹
- kon [2]: 87500 M⁻¹ s⁻¹
